The supplement of paper PMC10899765

What was measured:
Settings in all cases: 20 nM; 72 h
MCF10A [1] = test: percent viability (nuclei count relative to siNT); higher = more viable cells
Experimental: (§1)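 After 72 h, cells were fixed and stained with Hoechst and anti-fibrillarin, and nucleoli per nucleus were counted with CellProfiler. Values are plate-adjusted percent effect for the one-nucleolus and 5+ nucleoli phenotypes, normalised to siNT (0%) and to the positive controls siNOL11 or siKIF11 (100%), as the mean of biological triplicates. Percent viability is the nuclei count relative to siNT.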

MCF10A [2] = test: one-nucleolus phenotype percent effect (relative to siNT 0% and siNOL11 100%); higher = more cells with one nucleolus (ribosome biogenesis inhibition)
Experimental: as §1

MCF10A [3] = test: 5+ nucleoli phenotype percent effect (relative to siNT 0% and siKIF11 100%); higher = more cells with five or more nucleoli
Experimental: as §1

Sequence	percent viability (MCF10A [1]) [%]	one-nucleolus phenotype percent effect (MCF10A [2]) [%]	5+ nucleoli phenotype percent effect (MCF10A [3]) [%]
UCUGGGCAACAAAGUGAGACCU [hsa-miR-1285-3p]	28.8	20.6	2.8
ACUGAUUAUCUUAACUCUCUGA [hsa-miR-3920]	82	-37.8	38.1
UGAGGAGAUCGUCGAGGUUGG [hsa-miR-3150b-3p]	47.3	-11.7	24.3
UAGGGGUGGGGGAAUUCAGGGGUGU [hsa-miR-6782-5p]	26.5	-3.68	1.01
UGGCAGUGUAUUGUUAGCUGGU [hsa-miR-449a]	14	36.9	-16.3
UGCUUAACCUUGCCCUCGAAA [hsa-miR-4804-3p]	49.2	20.5	-30.7
UCGGAUCCGUCUGAGCUUGGCU [hsa-miR-127-3p]	41.5	14.4	-26.8
ACUGCAUUAUGAGCACUUAAAG [hsa-miR-20a-3p]	138	-23.3	43.3
AUCUGUAAGAGAAAGUAAAUGA [hsa-miR-3686]	48.4	-0.187	21.5
CGGGGUCGGCGGCGACGUG [hsa-miR-7704]	38.3	-0.45	9.03
UGAGUGAUUGAUAGCUAUGUUC [hsa-miR-4765]	52.9	-19.8	24.9
GGAGAUGGAGGUUGCAGUG [hsa-miR-1273f]	62.9	20.3	1.46
GUGAGUCAGGGUGGGGCUGG [hsa-miR-937-5p]	41.5	19.2	-10.1
UAGGAUUACAAGUGUCGGCCAC [hsa-miR-3159]	44.9	-5	-4.52
UGGGAGAGAGGACUGUGAGGC [hsa-miR-8085]	12.6	21.4	-1.75
CCUAUUCUUGAUUACUUGUUUC [hsa-miR-26a-2-3p]	138	-7.71	2.15
ACUUAAACGUGGAUGUACUUGCU [hsa-miR-302a-5p]	128	-19	65.8
CAGGAGGCAGUGGGCGAGCAGG [hsa-miR-4695-5p]	54.7	-5.49	14.2
AGGAAACAGGGACCCA [hsa-miR-4261]	32.1	37.1	-16.8
CUUCCAGACGCUCCGCCCCACGUCG [hsa-miR-3180-5p]	67.4	-9.39	28.4

Sequence	percent viability (MCF10A [1]) [%]	one-nucleolus phenotype percent effect (MCF10A [2]) [%]	5+ nucleoli phenotype percent effect (MCF10A [3]) [%]
CCUCACCAUCCCUUCUGCCUGC [hsa-miR-6511a-3p]	41.3	-11.2	24.1
CGGGACUGUAGAGGGCAUGAGC [hsa-miR-8052]	42.4	4.6	28.9
UUGGGUUUUCUCUUCAAUCCAG [hsa-miR-6839-3p]	22.3	14.2	-18.2
UAUGUCUGCUGACCAUCACCUU [hsa-miR-654-3p]	38	28.2	-34.7
AGCGCGGGCUGAGCGCUGCCAGUC [hsa-miR-2277-5p]	31.3	25.5	-22.4
CCAGAGCAGCCUGCGGUAACAGU [hsa-miR-6501-3p]	35.1	1.17	-17.2
AGCAGGGCUGGGGAUUGCA [hsa-miR-6132]	20.5	57.1	-31
UGGCUGCUUCCCUUGGUCUCCAG [hsa-miR-6762-3p]	20.3	44	-10.9
UCUGAGGCCUGCCUCUCCCCA [hsa-miR-4649-3p]	54.4	23.9	-6.15
UGAGUGUUGUCUACGAGGGCA [hsa-miR-3659]	59	-0.683	21.3
GCGGGGCUGGGCGCGCG [hsa-miR-4508]	90.5	-26.4	29.5
AGGUGGGUAUGGAGGAGCCCU [hsa-miR-6769a-5p]	14.3	39.6	-16.7
AAAACCGUCUAGUUACAGUUGU [hsa-miR-1537]	73.7	-11.1	13.9
AAUGACACGAUCACUCCCGUUGA [hsa-miR-425-5p]	74.9	-5.83	16.6
UGCUGGCUCAUUUCAUAUGUGU [hsa-miR-5580-5p]	29.6	22.1	-18.4
GAAGUGUGCCGUGGUGUGUCU [hsa-miR-595]	30.6	12.4	-22
CAGGGAACCAGUUGGGGCUU [hsa-miR-6822-5p]	20.6	20.9	-8.39
UCUUGGAGUAGGUCAUUGGGUGG [hsa-miR-432-5p]	34.1	28.2	-33.5
AAUGUGUAGCAAAAGACAGA [hsa-miR-511-3p]	18.7	55.2	-40.6
UCCUUCUGCUCCGUCCCCCAG [hsa-miR-1237-3p]	52.7	-0.823	6.7

Sequence	percent viability (MCF10A [1]) [%]	one-nucleolus phenotype percent effect (MCF10A [2]) [%]	5+ nucleoli phenotype percent effect (MCF10A [3]) [%]
UUCAUGAACUGGGUCUAGCUUGG [hsa-miR-7154-5p]	60.8	-15.2	-0.807
ACUGGACUUGGAGUCAGAAGGC [hsa-miR-378a-3p]	66.7	-2.19	13.6
AGCAUGACAGAGGAGAGGUGG [hsa-miR-6076]	33.8	7.38	-17.6
UAAUCUCAGCUGGCAACUGUGA [hsa-miR-216a-5p]	67.7	6.23	-8.01
UAGGGUACUCAGAGCAAGUUGU [hsa-miR-6841-5p]	63.6	-4.08	14.6
UCACCUGAGCUCCCGUGCCUG [hsa-miR-3622b-3p]	107	-20.9	29.9
UUCUCUUUCUUUAGCCUUGUGU [hsa-miR-4753-3p]	22.1	27.3	-14.1
CAUCAGCACCCUAUGUCCUUUCU [hsa-miR-3617-3p]	20	29.5	-20.3
AUUCUCUCUGGAUCCCAUGGAU [hsa-miR-4768-5p]	22.6	-12.2	-2.49
AGCAUACACCUGUAGUCCUAGA [hsa-miR-5689]	66.7	0.904	2.26
ACCCUAUCAAUAUUGUCUCUGC [hsa-miR-454-5p]	81.2	-29.8	45.6
UAAGUGCUUCCAUGUUUUGGUGA [hsa-miR-302a-3p]	78.9	-15.9	72.3
UCUGGAUUGAAGAGACGACCCA [hsa-miR-6839-5p]	36.1	2.28	-12.4
ACCGUCUCUUCUGUUCCCCAG [hsa-miR-6827-3p]	64.6	16.9	-12.7
UAUUCAUUUAUCCCCAGCCUACA [hsa-miR-664a-3p]	121	-21	26
CUCUAGAGGGAAGCACUUUCUC [hsa-miR-518f-5p]	33.5	8.67	3.35
UAAUACUGCCGGGUAAUGAUGGA [hsa-miR-200c-3p]	104	-17	62.3
UAACAUAAUAGUGUGGAUUGA [hsa-miR-4803]	168	-25	40.9
GUUUGGACAUAGUGUGGCUGG [hsa-miR-7850-5p]	115	-32.7	49.1
